# Numbered stars: 1 amine (or outer) side, 2 acyl side, 3 side chain; on linkers, the order of the positions; unused ones are H or OH. Side chains are listed from the residue outwards. * marks the point of attachment. C20 diacid = O=C(O)CCCCCCCCCCCCCCCCCCC(=O)*; C18 diacid = O=C(O)CCCCCCCCCCCCCCCCC(=O)*; γGlu = O=C(O)[C@H](CCC(=O)[*:2])N[*:1]; Palmitoyl = CCCCCCCCCCCCCCCC(=O)*
# T1: human amylin 3(a) receptor (human calcitonin receptor co-expressed with RAMP-3) (human, UniProt P30988 25-474; O60896 24-148, limits assumed)
# T1 sequence (looked up) 1: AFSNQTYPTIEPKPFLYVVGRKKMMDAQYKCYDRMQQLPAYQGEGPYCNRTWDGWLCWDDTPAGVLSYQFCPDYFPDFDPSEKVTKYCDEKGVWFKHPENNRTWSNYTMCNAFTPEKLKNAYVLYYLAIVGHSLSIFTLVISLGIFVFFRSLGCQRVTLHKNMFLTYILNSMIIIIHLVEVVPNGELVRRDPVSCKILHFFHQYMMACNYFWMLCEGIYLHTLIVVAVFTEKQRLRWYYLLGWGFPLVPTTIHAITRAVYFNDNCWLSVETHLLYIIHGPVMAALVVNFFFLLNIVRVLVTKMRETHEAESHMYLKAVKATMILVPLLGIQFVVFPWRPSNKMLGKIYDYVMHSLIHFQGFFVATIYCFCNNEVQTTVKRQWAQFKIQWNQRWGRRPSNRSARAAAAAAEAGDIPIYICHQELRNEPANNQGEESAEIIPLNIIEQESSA
# T1 sequence (looked up) 2: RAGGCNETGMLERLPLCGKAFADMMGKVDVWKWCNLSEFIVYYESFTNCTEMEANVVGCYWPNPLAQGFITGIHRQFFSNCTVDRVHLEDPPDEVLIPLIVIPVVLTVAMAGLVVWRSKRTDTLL
# T2: human calcitonin receptor (human, UniProt P30988 25-474)
# T2 sequence (looked up): T1 sequence (looked up) 1
# B1: [N-terminal(C20 diacid-gGlu), des1, 15E, 30S, 31G]mimylin (peptide)
# peptide: {C20 diacid-γGlu}-ASELSTAALGRLSEELHELATLPRTETGSGSP-NH2
# SMILES: CC(C)C[C@H](NC(=O)[C@H](C)NC(=O)[C@H](C)NC(=O)[C@@H](NC(=O)[C@H](CO)NC(=O)[C@H](CC(C)C)NC(=O)[C@H](CCC(=O)O)NC(=O)[C@H](CO)NC(=O)[C@H](C)NC(=O)CC[C@H](NC(=O)CCCCCCCCCCCCCCCCCCC(=O)O)C(=O)O)[C@@H](C)O)C(=O)NCC(=O)N[C@@H](CCCNC(=N)N)C(=O)N[C@@H](CC(C)C)C(=O)N[C@@H](CO)C(=O)N[C@@H](CCC(=O)O)C(=O)N[C@@H](CCC(=O)O)C(=O)N[C@@H](CC(C)C)C(=O)N[C@@H](Cc1c[nH]cn1)C(=O)N[C@@H](CCC(=O)O)C(=O)N[C@@H](CC(C)C)C(=O)N[C@@H](C)C(=O)N[C@H](C(=O)N[C@@H](CC(C)C)C(=O)N1CCC[C@H]1C(=O)N[C@@H](CCCNC(=N)N)C(=O)N[C@H](C(=O)N[C@@H](CCC(=O)O)C(=O)N[C@H](C(=O)NCC(=O)N[C@@H](CO)C(=O)NCC(=O)N[C@@H](CO)C(=O)N1CCC[C@H]1C(N)=O)[C@@H](C)O)[C@@H](C)O)[C@@H](C)O
# B2: [N-terminal(C20 diacid-gGlu), des1, 30S, 31G, 33A]mimylin (peptide)
# peptide: {C20 diacid-γGlu}-ASELSTAALGRLSAELHELATLPRTETGSGSA-NH2
# SMILES: CC(C)C[C@H](NC(=O)[C@H](C)NC(=O)[C@H](C)NC(=O)[C@@H](NC(=O)[C@H](CO)NC(=O)[C@H](CC(C)C)NC(=O)[C@H](CCC(=O)O)NC(=O)[C@H](CO)NC(=O)[C@H](C)NC(=O)CC[C@H](NC(=O)CCCCCCCCCCCCCCCCCCC(=O)O)C(=O)O)[C@@H](C)O)C(=O)NCC(=O)N[C@@H](CCCNC(=N)N)C(=O)N[C@@H](CC(C)C)C(=O)N[C@@H](CO)C(=O)N[C@@H](C)C(=O)N[C@@H](CCC(=O)O)C(=O)N[C@@H](CC(C)C)C(=O)N[C@@H](Cc1c[nH]cn1)C(=O)N[C@@H](CCC(=O)O)C(=O)N[C@@H](CC(C)C)C(=O)N[C@@H](C)C(=O)N[C@H](C(=O)N[C@@H](CC(C)C)C(=O)N1CCC[C@H]1C(=O)N[C@@H](CCCNC(=N)N)C(=O)N[C@H](C(=O)N[C@@H](CCC(=O)O)C(=O)N[C@H](C(=O)NCC(=O)N[C@@H](CO)C(=O)NCC(=O)N[C@@H](CO)C(=O)N[C@@H](C)C(N)=O)[C@@H](C)O)[C@@H](C)O)[C@@H](C)O
# B3: [N-terminal(C20 diacid-gGlu), des1, 25H, 30S, 31G]mimylin (peptide)
# peptide: {C20 diacid-γGlu}-ASELSTAALGRLSAELHELATLPHTETGSGSP-NH2
# SMILES: CC(C)C[C@H](NC(=O)[C@H](C)NC(=O)[C@H](C)NC(=O)[C@@H](NC(=O)[C@H](CO)NC(=O)[C@H](CC(C)C)NC(=O)[C@H](CCC(=O)O)NC(=O)[C@H](CO)NC(=O)[C@H](C)NC(=O)CC[C@H](NC(=O)CCCCCCCCCCCCCCCCCCC(=O)O)C(=O)O)[C@@H](C)O)C(=O)NCC(=O)N[C@@H](CCCNC(=N)N)C(=O)N[C@@H](CC(C)C)C(=O)N[C@@H](CO)C(=O)N[C@@H](C)C(=O)N[C@@H](CCC(=O)O)C(=O)N[C@@H](CC(C)C)C(=O)N[C@@H](Cc1c[nH]cn1)C(=O)N[C@@H](CCC(=O)O)C(=O)N[C@@H](CC(C)C)C(=O)N[C@@H](C)C(=O)N[C@H](C(=O)N[C@@H](CC(C)C)C(=O)N1CCC[C@H]1C(=O)N[C@@H](Cc1c[nH]cn1)C(=O)N[C@H](C(=O)N[C@@H](CCC(=O)O)C(=O)N[C@H](C(=O)NCC(=O)N[C@@H](CO)C(=O)NCC(=O)N[C@@H](CO)C(=O)N1CCC[C@H]1C(N)=O)[C@@H](C)O)[C@@H](C)O)[C@@H](C)O
# B4: [N-terminal(C18 diacid-gGlu), des1, 9V, 30S, 31G]mimylin (peptide)
# peptide: {C18 diacid-γGlu}-ASELSTAVLGRLSAELHELATLPRTETGSGSP-NH2
# SMILES: CC(C)C[C@H](NC(=O)[C@H](CCC(=O)O)NC(=O)[C@H](Cc1c[nH]cn1)NC(=O)[C@H](CC(C)C)NC(=O)[C@H](CCC(=O)O)NC(=O)[C@H](C)NC(=O)[C@H](CO)NC(=O)[C@H](CC(C)C)NC(=O)[C@H](CCCNC(=N)N)NC(=O)CNC(=O)[C@H](CC(C)C)NC(=O)[C@@H](NC(=O)[C@H](C)NC(=O)[C@@H](NC(=O)[C@H](CO)NC(=O)[C@H](CC(C)C)NC(=O)[C@H](CCC(=O)O)NC(=O)[C@H](CO)NC(=O)[C@H](C)NC(=O)CC[C@H](NC(=O)CCCCCCCCCCCCCCCCC(=O)O)C(=O)O)[C@@H](C)O)C(C)C)C(=O)N[C@@H](C)C(=O)N[C@H](C(=O)N[C@@H](CC(C)C)C(=O)N1CCC[C@H]1C(=O)N[C@@H](CCCNC(=N)N)C(=O)N[C@H](C(=O)N[C@@H](CCC(=O)O)C(=O)N[C@H](C(=O)NCC(=O)N[C@@H](CO)C(=O)NCC(=O)N[C@@H](CO)C(=O)N1CCC[C@H]1C(N)=O)[C@@H](C)O)[C@@H](C)O)[C@@H](C)O
# B5: [N-terminal(C18 diacid-gGlu), des1, 30S, 31G, 32P]mimylin (peptide)
# peptide: {C18 diacid-γGlu}-ASELSTAALGRLSAELHELATLPRTETGSGPP-NH2
# SMILES: CC(C)C[C@H](NC(=O)[C@H](C)NC(=O)[C@H](C)NC(=O)[C@@H](NC(=O)[C@H](CO)NC(=O)[C@H](CC(C)C)NC(=O)[C@H](CCC(=O)O)NC(=O)[C@H](CO)NC(=O)[C@H](C)NC(=O)CC[C@H](NC(=O)CCCCCCCCCCCCCCCCC(=O)O)C(=O)O)[C@@H](C)O)C(=O)NCC(=O)N[C@@H](CCCNC(=N)N)C(=O)N[C@@H](CC(C)C)C(=O)N[C@@H](CO)C(=O)N[C@@H](C)C(=O)N[C@@H](CCC(=O)O)C(=O)N[C@@H](CC(C)C)C(=O)N[C@@H](Cc1c[nH]cn1)C(=O)N[C@@H](CCC(=O)O)C(=O)N[C@@H](CC(C)C)C(=O)N[C@@H](C)C(=O)N[C@H](C(=O)N[C@@H](CC(C)C)C(=O)N1CCC[C@H]1C(=O)N[C@@H](CCCNC(=N)N)C(=O)N[C@H](C(=O)N[C@@H](CCC(=O)O)C(=O)N[C@H](C(=O)NCC(=O)N[C@@H](CO)C(=O)NCC(=O)N1CCC[C@H]1C(=O)N1CCC[C@H]1C(N)=O)[C@@H](C)O)[C@@H](C)O)[C@@H](C)O
# B6: [N-terminal(C20 diacid-gGlu), des1, 30T, 31G, 32T]mimylin (peptide)
# peptide: {C20 diacid-γGlu}-ASELSTAALGRLSAELHELATLPRTETGTGTP-NH2
# SMILES: CC(C)C[C@H](NC(=O)[C@H](C)NC(=O)[C@H](C)NC(=O)[C@@H](NC(=O)[C@H](CO)NC(=O)[C@H](CC(C)C)NC(=O)[C@H](CCC(=O)O)NC(=O)[C@H](CO)NC(=O)[C@H](C)NC(=O)CC[C@H](NC(=O)CCCCCCCCCCCCCCCCCCC(=O)O)C(=O)O)[C@@H](C)O)C(=O)NCC(=O)N[C@@H](CCCNC(=N)N)C(=O)N[C@@H](CC(C)C)C(=O)N[C@@H](CO)C(=O)N[C@@H](C)C(=O)N[C@@H](CCC(=O)O)C(=O)N[C@@H](CC(C)C)C(=O)N[C@@H](Cc1c[nH]cn1)C(=O)N[C@@H](CCC(=O)O)C(=O)N[C@@H](CC(C)C)C(=O)N[C@@H](C)C(=O)N[C@H](C(=O)N[C@@H](CC(C)C)C(=O)N1CCC[C@H]1C(=O)N[C@@H](CCCNC(=N)N)C(=O)N[C@H](C(=O)N[C@@H](CCC(=O)O)C(=O)N[C@H](C(=O)NCC(=O)N[C@H](C(=O)NCC(=O)N[C@H](C(=O)N1CCC[C@H]1C(N)=O)[C@@H](C)O)[C@@H](C)O)[C@@H](C)O)[C@@H](C)O)[C@@H](C)O
# Target: T1, human amylin 3(a) receptor (human …)
# Test: cell-based or functional assay
row,hAmylin-R funct. EC50 (pM),Binder
1,41,B1
2,32,"Ac-ASELSTAALGRLSAELHK([γGlu-C20 diacid])LATLPRTETGSGSP-NH2 [[N-terminal(acetyl), des1, 19K(C20 diacid-gGlu), 30S, 31G]mimylin]"
3,67,B2
4,21,"Ac-ASELSTAALGRLSAK([γGlu-C20 diacid])LHELATLPRTETGSGSP-NH2 [[N-terminal(acetyl), des1, 16K(C20 diacid-gGlu), 30S, 31G]mimylin]"
5,27,B3
6,10,Palmitoyl-EASELSTAALGRLSAELHELATLPRTETGPESP-NH2 [[N-terminal(C16)]mimylin]
7,10,B4
8,36,"Ac-ASK([γGlu-C20 diacid])LSTAALGRLSAELHELATLPRTETGSGSP-NH2 [[N-terminal(acetyl), des1, 4K(C20 diacid-gGlu), 30S, 31G]mimylin]"
9,80,B5
10,17,"{C20 diacid-γGlu}-ASELSTAALGHLSAELHELATLPRTETGSGSP-NH2 [[N-terminal(C20 diacid-gGlu), des1, 12H, 30S, 31G]mimylin]"
11,50,B6

# Target: T2, human calcitonin receptor
# Test: cell-based or functional assay
row,hCTR funct. EC50 (pM),Binder
1,25,B1
2,19,"Ac-ASELSTAALGRLSAELHK([γGlu-C20 diacid])LATLPRTETGSGSP-NH2 [[N-terminal(acetyl), des1, 19K(C20 diacid-gGlu), 30S, 31G]mimylin]"
3,40,B2
4,28,"Ac-ASELSTAALGRLSAK([γGlu-C20 diacid])LHELATLPRTETGSGSP-NH2 [[N-terminal(acetyl), des1, 16K(C20 diacid-gGlu), 30S, 31G]mimylin]"
5,18,B3
6,13,Palmitoyl-EASELSTAALGRLSAELHELATLPRTETGPESP-NH2 [[N-terminal(C16)]mimylin]
7,14,B4
8,27,"Ac-ASK([γGlu-C20 diacid])LSTAALGRLSAELHELATLPRTETGSGSP-NH2 [[N-terminal(acetyl), des1, 4K(C20 diacid-gGlu), 30S, 31G]mimylin]"
9,19,B5
10,12,"{C20 diacid-γGlu}-ASELSTAALGHLSAELHELATLPRTETGSGSP-NH2 [[N-terminal(C20 diacid-gGlu), des1, 12H, 30S, 31G]mimylin]"
11,45,B6
